B1: Krueppel-like factor 10 (Homo sapiens), Q13118 (parent)
chain: MLNFGASLQQTAEERMEMISERPKESMYSWNKTAEKSDFEAVEALMSMSCSWKSDFKKYVENRPVTPVSDLSEEENLLPGTPDFHTIPAFCLTPPYSPSDFEPSQVSNLMAPAPSTVHFKSLSDTAKPHIAAPFKEEEKSPVSAPKLPKAQATSVIRHTADAQLCNHQTCPMKAASILNYQNNSFRRRTHLNVEAARKNIPCAAVSPNRSKCERNTVADVDEKASAALYDFSVPSSETVICRSQPAPVSPQQKSVLVSPPAVSAGGVPPMPVICQMVPLPANNPVVTTVVPSTPPSQPPAVCPPVVFMGTQVPKGAVMFVVPQPVVQSSKPPVVSPNGTRLSPIAPAPGFSPSAAKVTPQIDSSRIRSHICSHPGCGKTYFKSSHLKAHTRTHTGEKPFSCSWKGCERRFARSDELSRHRRTHTGEKKFACPMCDRRFMRSDHLTKHARRHLSAKKLPNWQMEVSKLNDIALPPTPAPTQ
partner: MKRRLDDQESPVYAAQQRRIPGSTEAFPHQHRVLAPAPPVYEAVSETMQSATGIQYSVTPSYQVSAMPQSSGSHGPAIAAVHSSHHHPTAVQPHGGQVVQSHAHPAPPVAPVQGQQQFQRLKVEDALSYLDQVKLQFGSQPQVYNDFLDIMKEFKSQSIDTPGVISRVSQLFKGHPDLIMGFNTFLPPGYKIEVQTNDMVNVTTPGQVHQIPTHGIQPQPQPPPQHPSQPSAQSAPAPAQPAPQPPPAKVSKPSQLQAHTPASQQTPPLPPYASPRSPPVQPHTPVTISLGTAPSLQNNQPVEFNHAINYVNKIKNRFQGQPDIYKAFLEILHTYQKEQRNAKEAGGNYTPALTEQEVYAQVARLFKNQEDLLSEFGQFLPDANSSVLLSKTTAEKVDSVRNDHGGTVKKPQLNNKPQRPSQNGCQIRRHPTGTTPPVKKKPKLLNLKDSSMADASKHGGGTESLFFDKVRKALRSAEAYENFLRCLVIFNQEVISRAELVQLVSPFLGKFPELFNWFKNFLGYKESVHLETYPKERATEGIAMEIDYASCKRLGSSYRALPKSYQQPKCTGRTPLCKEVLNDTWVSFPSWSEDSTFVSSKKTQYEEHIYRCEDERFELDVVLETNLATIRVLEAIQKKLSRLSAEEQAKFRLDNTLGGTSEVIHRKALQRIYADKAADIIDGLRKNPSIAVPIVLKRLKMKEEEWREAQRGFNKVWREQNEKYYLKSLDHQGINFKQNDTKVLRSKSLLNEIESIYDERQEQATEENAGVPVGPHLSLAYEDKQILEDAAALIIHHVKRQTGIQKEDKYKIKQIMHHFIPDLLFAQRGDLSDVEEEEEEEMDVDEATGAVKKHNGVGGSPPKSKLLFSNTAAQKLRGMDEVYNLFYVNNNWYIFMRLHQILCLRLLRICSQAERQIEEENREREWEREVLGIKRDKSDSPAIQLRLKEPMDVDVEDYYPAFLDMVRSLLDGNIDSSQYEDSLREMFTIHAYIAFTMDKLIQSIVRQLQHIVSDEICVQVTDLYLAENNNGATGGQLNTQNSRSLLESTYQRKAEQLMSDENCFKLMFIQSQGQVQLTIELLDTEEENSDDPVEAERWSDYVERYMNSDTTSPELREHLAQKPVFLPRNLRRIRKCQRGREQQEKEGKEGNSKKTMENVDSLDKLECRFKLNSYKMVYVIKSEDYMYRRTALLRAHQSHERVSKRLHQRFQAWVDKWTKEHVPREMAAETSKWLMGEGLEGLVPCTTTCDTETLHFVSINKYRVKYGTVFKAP

Variants of: B1
Details: with sin3a_human SIN3A
With E40P;A41P the “effect of a mutation on the interaction” value was “disrupting interaction strength”.
